This note sets out measurements from US20120093724.

Data set [1] concerns the target semenogelin I (UniProt P04279).
Data set [2] addresses semenogelin II (UniProt Q02383).

semenogelin I, sequence (P04279 24-462): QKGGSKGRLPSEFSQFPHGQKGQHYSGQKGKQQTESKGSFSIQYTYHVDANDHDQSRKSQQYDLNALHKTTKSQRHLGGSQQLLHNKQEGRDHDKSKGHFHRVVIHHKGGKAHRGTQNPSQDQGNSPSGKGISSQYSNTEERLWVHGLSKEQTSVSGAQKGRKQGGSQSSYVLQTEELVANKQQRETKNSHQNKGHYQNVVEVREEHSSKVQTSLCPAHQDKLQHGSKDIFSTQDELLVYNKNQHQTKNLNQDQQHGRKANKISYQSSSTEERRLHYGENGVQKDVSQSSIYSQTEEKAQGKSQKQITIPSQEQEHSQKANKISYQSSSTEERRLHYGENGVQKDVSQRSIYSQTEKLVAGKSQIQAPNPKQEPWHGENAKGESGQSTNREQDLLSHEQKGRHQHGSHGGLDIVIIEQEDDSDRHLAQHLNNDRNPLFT
semenogelin II, sequence (Q02383 24-582): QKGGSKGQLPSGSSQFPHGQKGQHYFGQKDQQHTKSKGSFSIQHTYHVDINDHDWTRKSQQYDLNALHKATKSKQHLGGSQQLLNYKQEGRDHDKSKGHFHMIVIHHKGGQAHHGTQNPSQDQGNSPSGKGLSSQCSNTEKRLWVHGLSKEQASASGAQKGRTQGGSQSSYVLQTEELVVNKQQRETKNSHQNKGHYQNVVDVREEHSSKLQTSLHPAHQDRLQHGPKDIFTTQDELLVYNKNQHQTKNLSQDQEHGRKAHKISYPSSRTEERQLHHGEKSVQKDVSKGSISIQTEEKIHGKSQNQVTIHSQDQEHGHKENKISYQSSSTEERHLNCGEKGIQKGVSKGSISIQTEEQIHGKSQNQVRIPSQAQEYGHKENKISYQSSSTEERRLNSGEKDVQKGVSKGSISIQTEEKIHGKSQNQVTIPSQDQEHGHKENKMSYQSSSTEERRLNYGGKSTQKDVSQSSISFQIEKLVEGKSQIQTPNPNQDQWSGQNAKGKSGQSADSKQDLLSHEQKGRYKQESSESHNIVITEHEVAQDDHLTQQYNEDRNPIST

As for human glandular kallikrein 2, in data set [1], the number of cleavage sites sequenced (cleavage sites) amounted to 4 and the “proteolytic cleavage (fragments by HPLC)” value is “Cleavage of either Sg I or Sg II with hK2 results in generation of a multitude of peptides”. In addition, in data set [2], the number of cleavage sites sequenced (cleavage sites) was determined as 7 and the “proteolytic cleavage (fragments by HPLC)” value was “Cleavage of either Sg I or Sg II with hK2 results in generation of a multitude of peptides”.
